This assay concerns the target T1, Recombinant mouse RBP4 with 6XHis Tag (mouse, UniProt Q00724 19-201).
T1 construct: Amine-coupled to a CM5 chip for SPR; also called msRBP4; source: E. coli expression system, purified (nickel NTA column)
Nature of the assay: SPR; mouse RBP4 amine-coupled to a CM5 chip (target 1,200 RU), Biacore S200; peptides as analytes, 0.8-26.6 uM; running buffer PBST (0.05% Tween20); 25 C; contact 120 s, dissociation 300 s; Kd from the site-specific binding fit Y=(Bmax*X)/(Kd+X). The settings on record: both partners purified. (SPR reads the build-up and loss of mass on a sensor chip optically.)

B1: msRbpr2 (42) peptide (peptide)
peptide: HVRDKLDMFEDKLESYLTHMNETGTLTPIILQVKELISVTKG
notes: mouse RBPR2 (STRA6like) peptide of 42 residues with the SYL residues S294, Y295, L296; also called WT-msRBPR2 peptide; mouse RBPR2 peptide; source: synthetic peptide (Biomatik Corporation)
For B1, the Kd (in general, the constant that tells how readily two partners part at equilibrium) was 25.4 µM.

B2: zebRBPR2 (34) peptide (peptide)
peptide: DKLDSLKDSLEQIALSCNQTESVFTYLIPSINEF
notes: zebrafish RBPR2 peptide of 34 residues; also called zebrafish RBPR2 peptide; source: synthetic peptide (Biomatik Corporation)
On to B2, for which the Kd is 33.2 µM.

B3: msStra6 (40) peptide (peptide)
peptide: SVVPTVQKVRAGINTDVSYLLAGFGIVLSEDRQEVVELVK
notes: mouse STRA6 peptide of 40 residues with Tyr336, Gly340 and Gly342; also called msSTRA6 peptide; mouse STRA6 peptide; source: synthetic peptide (Biomatik Corporation)
Take B3: the Kd is 26.7 µM.

The values above are taken from paper PMC9992173, “Mapping of the extracellular RBP4 ligand binding domain on the RBPR2 receptor for Vitamin A transport” (Frontiers in Cell and Developmental Biology, 2023).
